Test results from patent publication US20130230533A1 (Regeneron, published 2013).

Assays:
[1] = target: T1, Monomeric human CD48-mmH (human); assay: SPR (Biacore T100), 25 C, antibody captured by anti-Fc, monomeric CD48-mmH in solution
T1 construct: also called soluble CD48 expressed with a myc-myc-hexa-histidine C-terminal tag [mmH]
T1 chain: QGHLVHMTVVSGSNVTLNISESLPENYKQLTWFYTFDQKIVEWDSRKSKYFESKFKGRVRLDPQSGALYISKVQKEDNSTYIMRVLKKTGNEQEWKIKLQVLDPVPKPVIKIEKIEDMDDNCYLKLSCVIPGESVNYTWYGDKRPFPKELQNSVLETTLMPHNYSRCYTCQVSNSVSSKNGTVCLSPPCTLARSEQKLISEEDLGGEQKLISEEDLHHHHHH
Description: (§1) Measurements were conducted on a T100-2 BIACORE™ instrument (Biacore Life Sciences division of GE Healthcare, Piscataway, N.J.). Antibodies (either with mouse Fc [designated “H2M” or “H3M”] or human IgG4 Fc [designated “H4H”]) were captured through an anti-Fc chip surface, and CD48 was flowed over the surface either in a monomeric (soluble CD48 expressed with a myc-myc-hexa-histidine C-terminal tag [mmH]) or dimeric (soluble CD48 expressed with a C-terminal Fc fusion [mFc]) format.
(§2) The soluble CD48 was applied to the flow cell in separate injections at different concentrations, and kinetic association (kₐ) and dissociation (kd) rate constants were determined by fits to the kinetic binding data using Biacore software. Binding dissociation equilibrium constants and dissociation half-times were calculated from the kinetic rate constants as: KD=kd/kₐ; t_{1/2}=(ln 2/kd) (units: ka=M⁻¹*s⁻¹; kd=s⁻¹; KD=M; T½=min) (Tables 3-6).

[2] = target: T2, Dimeric human CD48-mFc (human); assay: SPR (Biacore T100), 25 C, antibody captured by anti-Fc, dimeric CD48-mFc in solution
T2 chain: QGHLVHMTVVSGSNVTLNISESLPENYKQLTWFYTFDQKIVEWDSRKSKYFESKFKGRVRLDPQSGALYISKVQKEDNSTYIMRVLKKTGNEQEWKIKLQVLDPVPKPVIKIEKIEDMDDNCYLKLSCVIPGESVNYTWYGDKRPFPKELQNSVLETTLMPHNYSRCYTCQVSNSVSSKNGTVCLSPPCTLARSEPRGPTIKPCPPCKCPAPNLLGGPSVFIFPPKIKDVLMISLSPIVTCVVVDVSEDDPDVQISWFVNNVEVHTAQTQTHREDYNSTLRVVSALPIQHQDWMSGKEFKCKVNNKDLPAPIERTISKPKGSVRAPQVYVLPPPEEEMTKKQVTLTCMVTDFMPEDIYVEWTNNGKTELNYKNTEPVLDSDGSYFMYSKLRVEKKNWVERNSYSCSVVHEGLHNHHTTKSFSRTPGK
Description: as §1, §2

[3] = target: T3, Dimeric human CD48-mFc (human); assay: SPR (Biacore), antibody captured by anti-Fc, CD48 in solution, 37 C
T3 construct: the whole entry is the construct; also called hCD48-mFc
T3 chain: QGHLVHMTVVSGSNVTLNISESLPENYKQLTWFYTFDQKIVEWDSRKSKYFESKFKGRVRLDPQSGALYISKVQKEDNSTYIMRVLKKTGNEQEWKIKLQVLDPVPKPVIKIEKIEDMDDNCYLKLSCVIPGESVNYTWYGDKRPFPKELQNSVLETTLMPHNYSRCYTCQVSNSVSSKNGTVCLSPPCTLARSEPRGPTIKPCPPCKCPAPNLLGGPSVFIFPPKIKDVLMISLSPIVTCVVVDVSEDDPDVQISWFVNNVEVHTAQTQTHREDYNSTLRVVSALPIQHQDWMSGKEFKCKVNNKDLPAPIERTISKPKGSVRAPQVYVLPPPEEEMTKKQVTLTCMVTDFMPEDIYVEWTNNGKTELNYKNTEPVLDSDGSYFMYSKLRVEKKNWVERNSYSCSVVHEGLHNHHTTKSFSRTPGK
Description: as §1, §2

[4] = target: T4, Monomeric human CD48-mmH (human); assay: as above
T4 chain: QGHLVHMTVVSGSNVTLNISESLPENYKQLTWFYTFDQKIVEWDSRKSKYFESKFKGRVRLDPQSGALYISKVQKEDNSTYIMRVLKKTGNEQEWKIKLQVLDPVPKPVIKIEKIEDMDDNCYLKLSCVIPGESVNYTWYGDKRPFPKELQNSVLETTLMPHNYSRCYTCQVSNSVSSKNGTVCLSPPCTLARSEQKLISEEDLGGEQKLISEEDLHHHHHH
Description: as §1, §2

B1: H2M1811N (antibody, mouse IgG2, V domains shown)
VH: QVQLVQSGAEAREPGASVRVSCKASGYTFTDYFIHWVRQAPGQGLEWMGWINPNSGATNFAQKFQGRVTMTRDTSLITAYMDLSRLKSDDAAVFYCARDVDGSGWYLDFWGQGTLVTVSS
VL: EIVLTQSPATLSLSPGERATLSCRASQSVSIYLAWYQQKPGQAPRLLIYDASNRATGIPARFSGSGSGTDFTLTISRLEPEDFAVYYCQQRSDWPPSITFGQGTRLEIK
notes: Human variable domains, mouse IgG2 Fc (prefix H2M)
Kd [1]: 17 nM
T½ [1]: 14 min
koff [1]: 0.000849 s⁻¹
kon [1]: 50000 M⁻¹ s⁻¹
Kd [2]: 1.6 nM
T½ [2]: 50 min
koff [2]: 0.00023 s⁻¹
kon [2]: 144000 M⁻¹ s⁻¹

B2: H2M1710N (antibody, mouse IgG2, V domains shown)
VH: QVQLVQSGADMKKPGASVRVSCKASGYTFTDYFIHWVRQAPGQGPEWMGWINPDSGATNYAQQFQGRVTMTRDTSISATYMEMSRLRSDDTAVFYCARDKDGSGWYLDDWGQGTLVTVSS
VL: EIVLTQSPATLSLSPGERATLSCRASQSVNIYLAWYQQKPGQAPRLLIYDASNRASGIPARFSGSGSGTDFTLTISSLEPEDFAVYYCQQRSNWPPSITFGQGTRLEIK
notes: Human variable domains, mouse IgG2 Fc (H2M)
Kd [3]: 0.885 nM
T½ [3]: 27 min
koff [3]: 0.000426 s⁻¹
kon [3]: 481000 M⁻¹ s⁻¹
Kd [4]: 153 nM
T½ [4]: 2 min
koff [4]: 0.0052 s⁻¹
kon [4]: 34000 M⁻¹ s⁻¹

B3: H2M1710N (antibody, mouse IgG2, V domains shown)
VH: QVQLVQSGADMKKPGASVRVSCKASGYTFTDYFIHWVRQAPGQGPEWMGWINPDSGATNYAQQFQGRVTMTRDTSISATYMEMSRLRSDDTAVFYCARDKDGSGWYLDDWGQGTLVTVSS
VL: EIVLTQSPATLSLSPGERATLSCRASQSVNIYLAWYQQKPGQAPRLLIYDASNRASGIPARFSGSGSGTDFTLTISSLEPEDFAVYYCQQRSNWPPSITFGQGTRLEIK
notes: as for B1
Kd [1]: 39.1 nM
T½ [1]: 8 min
koff [1]: 0.00146 s⁻¹
kon [1]: 37300 M⁻¹ s⁻¹
Kd [2]: 0.841 nM
T½ [2]: 123 min
koff [2]: 9.38e-05 s⁻¹
kon [2]: 112000 M⁻¹ s⁻¹

B4: H2M1763N (antibody, mouse IgG2, V domains shown)
VH: QIQLVQSGAEMKRPGTSVKVSCKASGYTFTSYGINWVRQAPGQGLEWMGWISAYNGDTNYAQKLQGRVTMTTDTSTTTAYMEVRSLRSDDTAVYYCARFLTGTKDYYYGMDVWGQGTTVTVSS
VL: DIQMTQSPSSLSASVGDRVTITCQASQDISNFLNWYQQKPGKAPDLLINDASILETGVPSRFSGSGSGTDFTLTINNLQPEDIATYYCQQYDNLPLTFGGGTKVEIK
notes: as for B2
Kd [3]: 0.293 nM
T½ [3]: 13 min
koff [3]: 0.000883 s⁻¹
kon [3]: 3.02e+06 M⁻¹ s⁻¹
Kd [4]: 13.5 nM
T½ [4]: 1 min
koff [4]: 0.0201 s⁻¹
kon [4]: 1.49e+06 M⁻¹ s⁻¹

B5: H2M1763N (antibody, mouse IgG2, V domains shown)
VH: QIQLVQSGAEMKRPGTSVKVSCKASGYTFTSYGINWVRQAPGQGLEWMGWISAYNGDTNYAQKLQGRVTMTTDTSTTTAYMEVRSLRSDDTAVYYCARFLTGTKDYYYGMDVWGQGTTVTVSS
VL: DIQMTQSPSSLSASVGDRVTITCQASQDISNFLNWYQQKPGKAPDLLINDASILETGVPSRFSGSGSGTDFTLTINNLQPEDIATYYCQQYDNLPLTFGGGTKVEIK
notes: as for B1
Kd [1]: 11.8 nM
T½ [1]: 2 min
koff [1]: 0.00648 s⁻¹
kon [1]: 548000 M⁻¹ s⁻¹
Kd [2]: 0.256 nM
T½ [2]: 23 min
koff [2]: 0.000499 s⁻¹
kon [2]: 1.95e+06 M⁻¹ s⁻¹

B6: H4H1763N (antibody, human IgG4, V domains shown)
VH: QIQLVQSGAEMKRPGTSVKVSCKASGYTFTSYGINWVRQAPGQGLEWMGWISAYNGDTNYAQKLQGRVTMTTDTSTTTAYMEVRSLRSDDTAVYYCARFLTGTKDYYYGMDVWGQGTTVTVSS
VL: DIQMTQSPSSLSASVGDRVTITCQASQDISNFLNWYQQKPGKAPDLLINDASILETGVPSRFSGSGSGTDFTLTINNLQPEDIATYYCQQYDNLPLTFGGGTKVEIK
notes: Human IgG4 Fc (prefix H4H)
Kd [1]: 8.2 nM
T½ [1]: 2 min
koff [1]: 0.00631 s⁻¹
kon [1]: 769000 M⁻¹ s⁻¹
Kd [2]: 0.0268 nM
T½ [2]: 211 min
koff [2]: 5.48e-05 s⁻¹
kon [2]: 2.05e+06 M⁻¹ s⁻¹

B7: H2M1712N (antibody, mouse IgG2, V domains shown)
VH: QIQLVQSGAEMKRPGTSVKVSCKASGYTFSSYGINWVRQAPGQGLEWMGWISAYNGDTNYAQKLQGRVTMTTDTSTTTAYMEVRSLRSDDTAVYYCARFLTGTKDLYYGMDVWGQGTTVTVSS
VL: DIQMTQSPSSLSASVGDRVTITCQASQDISNFLNWYQQKPGKAPDLLINDASILETGVPSRFSGSGSGTDFTLTINSLQPEDIATYYCQQYDNLPLTFGGGTKVEIK
notes: as for B1
Kd [1]: 11.8 nM
T½ [1]: 2 min
koff [1]: 0.00619 s⁻¹
kon [1]: 524000 M⁻¹ s⁻¹
Kd [2]: 0.288 nM
T½ [2]: 22 min
koff [2]: 0.00053 s⁻¹
kon [2]: 1.84e+06 M⁻¹ s⁻¹
